This is an account of results in patent US20150141617A1, “PRODUCTION AND PURIFICATION OF ACTIVE EUKARYOTIC FORMYLGLYCINEGENERATING ENZYME (FGE) VARIANTS” (Universität Bielefeld, priority 2013, published 2015).

Series [1] has as its target FGE-HA (human formylglycine generating enzyme, wild type, C-terminal HA tag, expressed from pBI-FGE-HA in mammalian cells) (human) (UniProt Q8NBK3). Briefly: cell-based or functional assay.
Series [2] deals with T1, 23 amino acid substrate peptide Ac-MTDFYVPVSLCTPSRAALLTGRS-NH2 (SEQ ID NO: 46).
T1 chain: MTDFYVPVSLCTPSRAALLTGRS

Series [3] deals with the molecule itself. Briefly: size exclusion chromatography (Superdex 200), non-reducing SDS-PAGE and western blot with FGE antiserum. As to the method:
FIG. 16: Separation of the recombinant fl-FGE-R69A/R72A monomer and dimer by size-exclusion chromatography. (A) The pooled elution fractions from Ni-NTA purification (SM) were further purified in a Superdex (SD200 10/300 GL) column using Ettan LC system (GE health care). The eluted material in 0.5 ml of running buffer (20 mM Tris, pH 8.0 containing 200 mM NaCl) were collected and analyzed in SDS-PAGE under reducing conditions followed by coomassie staining (B) Equal volume of elution fractions obtained as shown in ‘(A)’ were resolved in SDS-PAGE under non-reducing conditions followed by western blot and membrane decorated with FGE anti-serum. (SM: starting material; FGE: monomer; FGE2: dimer).

For series [4], the system named is 23-aa long substrate peptide Ac-MTDFYVPVSLCTPSRAALLTGRS-NH2. As to the kind of experiment: In vitro FGE activity assay (MALDI-ToF MS) with purified recombinant FGE from insect cells. It counts as biochemical. As to the method:
a) fl-FGE-R69A/R72A (SEQ ID NO: 4) is active and e.g. generates FGly within a 23-aa long substrate peptide 16 pmol of the 23 amino acid (aa) long peptide Ac-[…]-NH2 (SEQ ID NO:46) were incubated with 12 ng of fl-FGE-R69A/R72A for 20 min at 37° C. under assay conditions (50 mM Tris, 67 mM NaCl, 15 μM CaCl2, 0.33 mg/mL BSA, 2 mM DTT, pH 9.3 in a total volume of 30 μL).
The reaction was stopped by adding 3 μL of 20% trifluoroacetic-acid (TFA), immediately followed by vortexing and by a short centrifugation at 10000×g. The peptide was purified and concentrated by C18-Zip-Tip treatment. Therefore the Zip-Tip was prepared by pipetting three times 10 μL of 50% acetonitrile, 0.05% TFA in water and three times 10 μL 0.1% TFA in water. The 33 μL sample was pipetted 10 times up and down. The bound peptide was washed by pipetting 10 times 10 μL 0.1% TFA in water and was eluted in 10 μL 50% acetonitrile, 0.05% TFA in water by pipetting 10 times up and down. For MS-analysis the following matrix was prepared freshly: 40 μL of a saturated α-cyano-hydroxycinnamic acid solution in aceton were added to 10 μL of a solution containing 10 mg/mL nitrocellulose in 50% Aceton/50% Isopropanol (v/v). 0.5 μL of the matrix were spotted onto a polished steel target and 1 μL of the purified sample was added. The dried sample spot was analyzed by MALDI-ToF mass spectrometry using the Ultra flextreme spectrometer from Bruker Daltronics. The cysteine containing substrate peptide (2526.28 [M+H]^+) and the FGly containing product peptide (2508.29 [M+H]^+) were detected.
b) fl-FGE-R69A/R72A (SEQ ID NO:4) is able to generate FGly by using GSH as reductant:10 times stock solutions of DTT and GSH were prepared in 20 mM Tris pH 9.3. For the reaction, 13 ng of Baculo-fl-FGE were incubated with 16 pmol of the 23 aa-long substrate peptide, 2 mM DTT or 5 mM reduced glutathione for 15 min at 37° C. under assay conditions (50 mM Tris, 67 mM NaCl, 15 μM CaCl2, 0.33 mg/mL BSA, pH 9.3 in a total volume of 30 μL). The reactions were stopped and prepared further for MS-analysis as described above. The ratio of the intensity of the FGly-product peptide divided by the sum of the substrate and product intensities multiplied with 100 yields %-turnover of the substrate peptide. Based on that, specific activities were calculated.
The dependence of FGly-generating activity of recombinant fl-FGE-R69A/R72A on the reducing agents DTT and GSH were analyzed at pH 9.3 under standard assay conditions (FGE and substrate peptide were incubated at 37° C. in 50 mM Tris/HCl, 67 mM NaCl, and 0.33 mg/ml BSA in 30 μl volume. The reaction was started by addition of substrate) using a MALDI-mass spectrometry based in vitro activity assay (Ennemann et al., 2013 and FIG. 7).
The pH-dependence for in vitro activity of recombinant fl-FGE-R69A/R72A and Δ72-FGE-wt was analyzed under optimal DTT and GSH concentrations. Accordingly, the activity of recombinant fl-FGE-R69A/R72A in the presence of 2 mM DTT, under standard assay conditions, was measured in buffers of pH ranging from pH 6.5 to 11.0 (FIG. 19A). […] In the presence of 5 mM GSH, the maximal activity was also observed at pH 9.3 and a very similar activity profile ranging from pH 7.5 to 11 (FIG. 19B). […] In summary, fl-FGE-R69A/R72A requires less alkaline conditions for optimum activity than Δ72-FGE-wt.

The subject of series [5] is cysteine-containing substrate peptide. Briefly: In vitro FGE activity assay with conditioned media from CHO-FD11 cells. It is filed as biochemical. The following applies: 5 mM GSH vs 2 mM DTT, pH 9.3, conditioned media. How it is done:
FGE activity was assayed using conditioned media that contained either secreted fl-FGE (obtained from CHO-FD FGE-His6 cells) or Δ72-FGE (obtained from CHO-FD Tet-On cells after transient co-transfection with pBI-FGE-HA and pIRES-Furin constructs). After expression for 48 h at 1% or 2.5% FCS containing DMEM, the medium was collected and centrifuged at 500×g for 5 min. The supernatant was analyzed by SDS-PAGE and western blotting and aliquots were directly used for activity testing.
The activity assay was performed in triplicates with three sets of conditioned media at pH 9.3 under standard conditions as described earlier (4) with some modifications; no BSA was added to the reaction mixture and 2 mM DTT or 5 mM GSH were used as reducing agents.
The inventors have recently shown that the N-terminal part of FGE (residues 34-68) is essential to activate sulfatases in vivo (12). By contrast, the N-terminal extension was not required for in vitro FGly-generating activity of purified secreted Δ72-FGE. […] To assess the physiological consequence of the N-terminal truncation by furin on the function of FGE, the inventors analyzed the FGly-generating activity of the processed and the unprocessed forms of secreted FGE in the presence of glutathione (GSH), a physiological reductant, or DTT serving as a control. […]

A short description of series [6]: Stability of purified recombinant FGE upon storage (SDS-PAGE, Coomassie staining or western blotting). It is filed as physicochemical. The following applies: thawing from −80° C. and short-term storage at 4° C. How it is done:
Purified enzymes are preferably stored frozen at −20° C. or −80° C., but it is known that the freeze-thaw cycle can lead to a decrease in the stability of proteins and/or accompanied loss of enzymatic activity. To minimize this effect, it is common to add stabilizing agents to preserve the stability and functionality of proteins during long-term storage. Analyses of conditions that affect the stability of purified recombinant fl-FGE-R69A/R72A and Δ72-FGE-wt were performed. The stability was assessed by analyzing the purified protein by SDS-PAGE and subsequently visualized by Coomassie staining or western blotting using FGE anti-serum as described above.
Generation of truncated FGE was increasingly detected upon removing the imidazole by size exclusion chromatography (Panel SEC, FIG. 17A). To gain further insights, aliquots of the purified fraction from size exclusion chromatography were incubated at 4° C. for either 3.5 h or 20 h in the presence of various additives like NaCl, imidazole, arginine and glycerol and later assessed by western blot using FGE anti-serum.

The target of series [7] is T2, steroid sulfatase (STS), expressed from pBI-STS in MSDi Tet-On cells (UniProt P08842 22-583, limits assumed).
T2 sequence (looked up): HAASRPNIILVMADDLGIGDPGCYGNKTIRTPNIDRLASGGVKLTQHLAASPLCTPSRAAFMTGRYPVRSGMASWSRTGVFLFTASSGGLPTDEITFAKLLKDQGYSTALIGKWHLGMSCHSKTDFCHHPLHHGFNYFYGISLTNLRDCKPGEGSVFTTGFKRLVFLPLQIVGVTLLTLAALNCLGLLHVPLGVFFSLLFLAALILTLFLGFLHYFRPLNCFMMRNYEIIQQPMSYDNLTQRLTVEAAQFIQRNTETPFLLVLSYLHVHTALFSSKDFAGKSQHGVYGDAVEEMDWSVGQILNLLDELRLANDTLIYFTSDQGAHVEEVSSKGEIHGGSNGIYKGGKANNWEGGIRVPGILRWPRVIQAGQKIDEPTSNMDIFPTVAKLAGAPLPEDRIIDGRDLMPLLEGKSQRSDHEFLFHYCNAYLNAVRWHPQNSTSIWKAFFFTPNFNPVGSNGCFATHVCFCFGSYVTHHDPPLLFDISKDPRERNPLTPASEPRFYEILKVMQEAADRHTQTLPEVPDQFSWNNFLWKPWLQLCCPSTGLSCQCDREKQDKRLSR
Briefly: cell-based or functional assay.

As to “human furin (Gene ID 5045), expressed from a pIRES construct in CHO-FD11 cells (from UniProt P09958 108-794)”, the share of Δ72-FGE in secretions of CHO-FD11 Tet-On cells co-expressing FGE and the PC (western blot) in series [1] turned out to be 100%.

B1: fl-FGE-R69A/R72A (SEQ ID NO: 4), produced in High Five insect cells (enzyme)
chain: ADEFSQEAGTGAGAGSLAGSCGCGTPQRPGAHGSSAAAHAYSAEANAPGPVPGERQLAHSKMVPIPAGVFTMGTDDPQIKQDGEAPARRVTIDAFYMDAYEVSNTEFEKFVNSTGYLTEAEKFGDSFVFEGMLSEQVKTNIQQAVAAAPWWLPVKGANWRHPEGPDSTILHRPDHPVLHVSWNDAVAYCTWAGKRLPTEAEWEYSCRGGLHNRLFPWGNKLQPKGQHYANIWQGEFPVTNTGEDGFQGTAPVDAFPPNGYGLYNIVGNAWEWTSDWWTVHHSVEETLNPKGPPSGKDRVKKGGSYMCHRSYCYRYRCAARSQNTPDSSASNLGFRCAADRLPTMDSGRGSHHHHHHH
notes: It has four extra N-terminal residues (ADEF), human FGE from S34 with R69A and R72A, and a C-terminal SGRGS-His7; After size exclusion it occurs as a monomer and as a disulfide-bridged dimer; also called Baculo-fl-FGE; recombinant fl-FGE-R69A/R72A
For B1, in series [2], the “specific activity, FGly generation in the 23-aa substrate peptide (MALDI-ToF MS), 2 mM DTT as reductant” value was 24.1±1.7 mU/mg in presence of the control reductant DTT and the “specific activity, FGly generation in the 23-aa substrate peptide (MALDI-ToF MS), 5 mM GSH as reductant” value is on record as 15.6±1.3 mU/mg in presence of GSH. In addition, the binding result in series [3] was “binds”.

B2: Δ72-FGE: human FGE that lacks the N-terminal domain (amino acid residues 1-72), SEQ ID NO:6 (protein)
chain: ADLGSSMEFEANAPGPVPGERQLAHSKMVPIPAGVFTMGTDDPQIKQDGEAPARRVTIDAFYMDAYEVSNTEFEKFVNSTGYLTEAEKFGDSFVFEGMLSEQVKTNIQQAVAAAPWWLPVKGANWRHPEGPDSTILHRPDHPVLHVSWNDAVAYCTWAGKRLPTEAEWEYSCRGGLHNRLFPWGNKLQPKGQHYANIWQGEFPVTNTGEDGFQGTAPVDAFPPNGYGLYNIVGNAWEWTSDWWTVHHSVEETLNPKGPPSGKDRVKKGGSYMCHRSYCYRYRCAARSQNTPDSSASNLGFRCAADRLPTMDSGRGSHHHHHHH
modifications: cleaved FGE in position 72 , inacitve FGE
As for B2, the “pH of maximal activity” value in series [4] (2 mM DTT, MTGC buffer pH 6.5-11.0) was about 10. Also, the “FGly generation in substrate peptide in presence of DTT” value in series [4] (2 mM DTT, pH 9.3, 37° C.) was “converts the cysteine-containing substrate peptide to the FGly-containing product peptide”. In addition, the “dependence of activity on reducing agent (DTT or GSH)” value in series [4] (in vitro, pH 9.3) is “strictly relies on DTT”. Moreover, the specific activity in series [4] (purified from Baculovirus expression system (Example 7)) was 70-90 mU/mg. Also, the “FGly-generating activity (% substrate turnover) in the presence of GSH normalized to that of DTT (100%)” value in series [5] is “barely active in the presence of GSH”. In addition, the “molecular integrity after storage” value in series [6] is on record as “did not lead to any change in the molecular integrity”.

B3: FGE-HA (human formylglycine generating enzyme, wild type, C-terminal HA tag, expressed from pBI-FGE-HA in mammalian cells) (enzyme, UniProt Q8NBK3 34-374, looked up, not shown: small tags and cut ends)
chain: SQEAGTGAGAGSLAGSCGCGTPQRPGAHGSSAAAHRYSREANAPGPVPGERQLAHSKMVPIPAGVFTMGTDDPQIKQDGEAPARRVTIDAFYMDAYEVSNTEFEKFVNSTGYLTEAEKFGDSFVFEGMLSEQVKTNIQQAVAAAPWWLPVKGANWRHPEGPDSTILHRPDHPVLHVSWNDAVAYCTWAGKRLPTEAEWEYSCRGGLHNRLFPWGNKLQPKGQHYANIWQGEFPVTNTGEDGFQGTAPVDAFPPNGYGLYNIVGNAWEWTSDWWTVHHSVEETLNPKGPPSGKDRVKKGGSYMCHRSYCYRYRCAARSQNTPDSSASNLGFRCAADRLPTMD
Regarding B3, the “relative specific activity of STS after co-expression in immortalized MSD Tet-On cells” value in series [7] is about 50 fold.
